{
  "source": "paper PMC8500521",
  "molecular_target": "HR2 (heptad repeat 2) polypeptide of SARS-CoV-2 spike protein (SARS-CoV-2) (UniProt P0DTC2)",
  "assay": "AUC; sedimentation velocity, 50,000 rpm, 20 C, 50 mM NaCl, 25 mM sodium phosphate pH 6.0, no detergent; monomer to tetramer",
  "data": [
    {"substance": "HR2 (heptad repeat 2) polypeptide of SARS-CoV-2 spike protein (from UniProt P0DTC2 1171-1207) (domain or fragment)", "values": [
      {"measurement": "monomer population at 250 uM", "result": 10, "unit": "%"},
      {"measurement": "stoichiometry N", "result": 4}
    ]}
  ]
}
